{"source": "patent US20150037332A1", "about": "“TREATMENT OF METASTIC BREAST CANCER” (GENENTECH, INC., priority 2008, published 2015)", "key": {"[1]": {"tested_on": "incurable, locally advanced, recurrent or metastatic solid tumors", "details": "cited from earlier work"}, "[2]": {"assay": "Clinical trials as of November 2006, torsades de pointes", "format": "in vivo, human", "details": "pertuzumab-treated patients"}, "[3]": {"assay": "Phase II single-agent Study BO16934 (metastatic breast cancer), serum pharmacokinetics", "format": "in vivo, human", "details": "for CL, systemic clearance (mean ± SD) / Vc, volume of central compartment (mean ± SD) / Vss, steady-state volume of distribution (mean ± SD) / t1/2 initial, initial distribution half-life (mean ± SD) / t1/2 terminal, terminal half-life (mean ± SD): intravenous infusion, 2-compartment population PK model", "text": "(§1) Mean serum Cmin and Cmax for the first two cycles of treatment in ovarian and metastatic breast cancer (MBC) patients are presented in Table 3.\n(§2) PK parameters were estimated using a two-compartment model (see Table 4)."}, "[4]": {"tested_on": "non-small cell lung cancer (NSCLC) and breast cancer tumors (low and high HER2 expression levels)", "assay": "Nonclinical dose-response xenograft studies", "format": "in vivo", "details": "nude mice, NSCLC and breast cancer xenografts"}, "[5]": {"assay": "Previous pertuzumab studies, PK summary (two-compartment model)", "format": "in vivo, human", "text": "(§3) Population PK modeling of data from Phase Ia and Phase II studies support the continued use of fixed, non-weight-based dosing in female patients."}, "[6]": {"tested_on": "previously treated HER2-positive metastatic breast cancer", "details": "in combination with trastuzumab; 11 patients enrolled; cited from earlier work"}, "[7]": {"assay": "Phase Ib combination studies with capecitabine (BO17003) and docetaxel (BO17021), PK", "format": "in vivo, human", "text": "In both studies, the PK parameters for pertuzumab were similar to the PK parameters obtained in single-agent pertuzumab studies."}, "[8]": {"assay": "Preliminary population PK analysis of Studies TOC2297g, TOC2689g and B016934", "format": "in vivo, human", "details": "153 patients, 1458 concentration-timepoints"}, "[9]": {"assay": "Phase II single-agent studies TOC2689g and BO16934 taken together, serum pharmacokinetics", "format": "in vivo, human", "text": "as §3, §1, §2"}, "[10]": {"assay": "Phase II single-agent Study TOC2689g (ovarian cancer), serum pharmacokinetics", "format": "in vivo, human", "details": "for CL, systemic clearance (mean ± SD) / Vc, volume of central compartment (mean ± SD) / Vss, steady-state volume of distribution (mean ± SD) / t1/2 initial, initial distribution half-life (mean ± SD) / t1/2 terminal, terminal half-life (mean ± SD): intravenous infusion, 2-compartment population PK model", "text": "as §1, §2"}, "[11]": {"assay": "Phase II study with gemcitabine in platinum-resistant ovarian cancer (TOC3258g), PK", "format": "in vivo, human"}, "[12]": {"details": "cited from earlier work"}, "[13]": {"assay": "Multi-dose intravenous toxicity and toxicokinetic studies (Studies 00-377-1821 and 01-458-1821), cardiac endpoints", "format": "in vivo", "details": "7-week and 26-week intravenous studies, cynomolgus monkeys", "method": "In a 7-week intravenous toxicity and toxicokinetic study in cynomolgus monkeys with a 4-week recovery period (Study 00-377-1821), telemetry was measured in two animals per sex in the control and high-dose (150 mg/kg/dose) groups to collect electrocardiographic endpoints. At two timepoints before the initiation of treatment, and on Days 1 and 28, telemetered animals had systolic, diastolic, and mean arterial blood pressure, heart rate, PR interval, QRS, QT, and Lead II ECG data recorded. Four 1-minute tracings were collected for each animal from 2 to 22 hours after dosing and interpreted by a board-certified veterinary cardiologist. In addition to the routine serum chemistry parameters evaluated, serum was also analyzed for creatinine kinase isozymes and Troponin T on Study Days 2/3 and 44/45 for all animals. […] Recordings were taken at two timepoints before the initiation of treatment and once during Weeks 4, 16, and 26 on anesthetized animals and were interpreted by a board-certified veterinary cardiologist. In addition to the routine serum chemistry parameters evaluated, serum was also analyzed for Troponin T on Day 1 predose and on Days 114, 184, and 239 (recovery) for all animals."}, "[14]": {"details": "Phase I, intravenously every 3 weeks"}, "[15]": {"details": "two-compartment model, typical patient"}, "[16]": {"details": "two-compartment model, Studies TOC2689g and BO16934"}}}
{"substance": "pertuzumab: antibody comprising the light and heavy chain amino acid sequences in SEQ ID NOs. 7 and 8; HER dimerization inhibitor binding HER2", "values": [{"measurement": "confirmed partial responses", "setting": "[1]; [14]", "result": "Two"}, {"measurement": "tumor regression, patients evaluable for response", "setting": "[1]; [14]", "result": "3 of 20"}, {"measurement": "tolerability", "setting": "[1]; given intravenously every 3 weeks", "result": "generally well tolerated"}, {"measurement": "association with an increase of TdP", "setting": "[2]", "result": "no association noted"}, {"measurement": "Cmax, mean peak serum concentration", "setting": "[3]; 420 mg (n = 40), Cycle 1", "result": 202.9, "unit": "µg/mL"}, {"measurement": "Cmin, mean (±SD) trough serum concentration", "setting": "[3]; 420 mg (n = 40), Cycle 1", "result": "56.5 (±21.2) μg/mL"}, {"measurement": "Cmax, mean peak serum concentration", "setting": "[3]; 420 mg (n = 40), Cycle 2", "result": 181.2, "unit": "µg/mL"}, {"measurement": "Cmin, mean (±SD) trough serum concentration", "setting": "[3]; 420 mg (n = 40), Cycle 2", "result": "62.6 (±21.1) μg/mL"}, {"measurement": "CL, systemic clearance (mean ± SD)", "setting": "[3]; 420 mg (n = 40)", "result": "0.255 ± 0.096", "unit": "L/day"}, {"measurement": "Vc, volume of central compartment (mean ± SD)", "setting": "[3]; 420 mg (n = 40)", "result": "2.98 ± 0.67", "unit": "L"}, {"measurement": "Vss, steady-state volume of distribution (mean ± SD)", "setting": "[3]; 420 mg (n = 40)", "result": "5.12 ± 0.98", "unit": "L"}, {"measurement": "t1/2 initial, initial distribution half-life (mean ± SD)", "setting": "[3]; 420 mg (n = 40)", "result": "32.6 ± 3.12", "unit": "h"}, {"measurement": "t1/2 terminal, terminal half-life (mean ± SD)", "setting": "[3]; 420 mg (n = 40)", "result": "391 ± 84", "unit": "h"}, {"measurement": "Cmax, mean peak serum concentration", "setting": "[3]; 1050 mg (n = 35), Cycle 1", "result": 425.6, "unit": "µg/mL"}, {"measurement": "Cmin, mean (±SD) trough serum concentration", "setting": "[3]; 1050 mg (n = 35), Cycle 1", "result": "75.9 (±34.5) μg/mL"}, {"measurement": "Cmax, mean peak serum concentration", "setting": "[3]; 1050 mg (n = 35), Cycle 2", "result": 542.9, "unit": "µg/mL"}, {"measurement": "Cmin, mean (±SD) trough serum concentration", "setting": "[3]; 1050 mg (n = 35), Cycle 2", "result": "136.6 (±53.5) μg/mL"}, {"measurement": "CL, systemic clearance (mean ± SD)", "setting": "[3]; 1050 mg (n = 35)", "result": "0.225 ± 0.121", "unit": "L/day"}, {"measurement": "Vc, volume of central compartment (mean ± SD)", "setting": "[3]; 1050 mg (n = 35)", "result": "2.95 ± 0.81", "unit": "L"}, {"measurement": "Vss, steady-state volume of distribution (mean ± SD)", "setting": "[3]; 1050 mg (n = 35)", "result": "5.11 ± 1.12", "unit": "L"}, {"measurement": "t1/2 initial, initial distribution half-life (mean ± SD)", "setting": "[3]; 1050 mg (n = 35)", "result": "33.4 ± 3.6", "unit": "h"}, {"measurement": "t1/2 terminal, terminal half-life (mean ± SD)", "setting": "[3]; 1050 mg (n = 35)", "result": "492 ± 194", "unit": "h"}, {"measurement": "steady-state trough concentrations at which >80% suppression of tumor growth was achieved", "setting": "[4]", "result": "5 to 25", "unit": "µg/mL"}, {"measurement": "suppression of tumor growth", "setting": "[4]; steady-state trough concentrations 5-25 μg/mL", "result": "> 80", "unit": "%"}, {"measurement": "impact on the PK of co-administered chemotherapeutic agents", "setting": "[5]; docetaxel and capecitabine in Phase Ib studies, gemcitabine in a Phase II study", "result": "no evidence that pertuzumab impacted the PK"}, {"measurement": "change in clearance with dose", "setting": "[5]; doses from 2.0 to 15.0 mg/kg", "result": "no change in clearance"}, {"measurement": "systemic serum clearance", "setting": "[5]; [15]", "result": "approximately 0.24 L/day"}, {"measurement": "terminal half-life", "setting": "[5]; [15]", "result": "approximately 17 days"}, {"measurement": "partial response (PR)", "setting": "[6]", "result": "Two out of the 11"}, {"measurement": "effect on the PK of capecitabine and docetaxel", "setting": "[7]; Phase Ib Studies BO17003 (capecitabine) and BO17021 (docetaxel)", "result": "does not alter the PK"}, {"measurement": "PK parameters for pertuzumab compared with single-agent pertuzumab studies", "setting": "[7]; in combination with capecitabine or docetaxel", "result": "similar"}, {"measurement": "population variability of steady-state trough concentration and exposure with fixed-dosing, body surface area-based dosing, and weight-based dosing", "setting": "[8]", "result": "similar"}, {"measurement": "steady-state serum Cmin", "setting": "[9]; 840 mg loading dose, 420 mg maintenance dose every 3 weeks, by the second treatment cycle", "result": "approximately 60 mg/mL"}, {"measurement": "attainment of steady-state Cmin and Cmax", "setting": "[9]; loading dose 840 mg followed by 420 mg every 3 weeks", "result": "by the second cycle"}, {"measurement": "mean systemic clearance, range over dose groups", "setting": "[9]; [16]", "result": "0.225 to 0.285", "unit": "L/day"}, {"measurement": "mean volume of distribution of the central compartment, range over dose groups", "setting": "[9]; [16]", "result": "2.70 to 3.11", "unit": "L"}, {"measurement": "Cmax, mean peak serum concentration", "setting": "[10]; 420 mg (n = 61), Cycle 1", "result": 231.7, "unit": "µg/mL"}, {"measurement": "Cmin, mean (±SD) trough serum concentration", "setting": "[10]; 420 mg (n = 61), Cycle 1", "result": "64.6 (±20.9) μg/mL"}, {"measurement": "Cmax, mean peak serum concentration", "setting": "[10]; 420 mg (n = 61), Cycle 2", "result": 237.6, "unit": "µg/mL"}, {"measurement": "Cmin, mean (±SD) trough serum concentration", "setting": "[10]; 420 mg (n = 61), Cycle 2", "result": "66.5 (±38.0) μg/mL"}, {"measurement": "CL, systemic clearance (mean ± SD)", "setting": "[10]; 420 mg (n = 61)", "result": "0.244 ± 0.095", "unit": "L/day"}, {"measurement": "Vc, volume of central compartment (mean ± SD)", "setting": "[10]; 420 mg (n = 61)", "result": "2.70 ± 0.39", "unit": "L"}, {"measurement": "Vss, steady-state volume of distribution (mean ± SD)", "setting": "[10]; 420 mg (n = 61)", "result": "4.73 ± 0.78", "unit": "L"}, {"measurement": "t1/2 initial, initial distribution half-life (mean ± SD)", "setting": "[10]; 420 mg (n = 61)", "result": "32.9 ± 2.88", "unit": "h"}, {"measurement": "t1/2 terminal, terminal half-life (mean ± SD)", "setting": "[10]; 420 mg (n = 61)", "result": "389 ± 113", "unit": "h"}, {"measurement": "Cmax, mean peak serum concentration", "setting": "[10]; 1050 mg (n = 62), Cycle 1", "result": 390.9, "unit": "µg/mL"}, {"measurement": "Cmin, mean (±SD) trough serum concentration", "setting": "[10]; 1050 mg (n = 62), Cycle 1", "result": "90.1 (±68.1) μg/mL"}, {"measurement": "Cmax, mean peak serum concentration", "setting": "[10]; 1050 mg (n = 62), Cycle 2", "result": 357.2, "unit": "µg/mL"}, {"measurement": "Cmin, mean (±SD) trough serum concentration", "setting": "[10]; 1050 mg (n = 62), Cycle 2", "result": "94.7 (±47.3) μg/mL"}, {"measurement": "CL, systemic clearance (mean ± SD)", "setting": "[10]; 1050 mg (n = 62)", "result": "0.285 ± 0.119", "unit": "L/day"}, {"measurement": "Vc, volume of central compartment (mean ± SD)", "setting": "[10]; 1050 mg (n = 62)", "result": "3.11 ± 0.72", "unit": "L"}, {"measurement": "Vss, steady-state volume of distribution (mean ± SD)", "setting": "[10]; 1050 mg (n = 62)", "result": "5.39 ± 1.31", "unit": "L"}, {"measurement": "t1/2 initial, initial distribution half-life (mean ± SD)", "setting": "[10]; 1050 mg (n = 62)", "result": "32.2 ± 2.64", "unit": "h"}, {"measurement": "t1/2 terminal, terminal half-life (mean ± SD)", "setting": "[10]; 1050 mg (n = 62)", "result": "379 ± 125", "unit": "h"}, {"measurement": "serum concentrations of pertuzumab compared with single-agent Phase II studies", "setting": "[11]; in combination with gemcitabine", "result": "similar"}, {"measurement": "effect on the PK of gemcitabine or its major metabolite, dFdU", "setting": "[11]; preliminary PK analysis", "result": "does not alter the PK"}, {"measurement": "antibodies to pertuzumab", "setting": "[12]; Phase I patients", "result": "not detected"}, {"measurement": "linearity of pharmacokinetics", "setting": "[12]; doses of 2.0-15 mg/kg", "result": "linear"}, {"measurement": "ECGs, blood pressures, and heart rates", "setting": "[13]", "result": "normal"}, {"measurement": "cardiac injury caused by treatment, by histopathology", "setting": "[13]", "result": "no evidence of cardiac injury"}, {"measurement": "serum chemistry parameters (Troponin T and creatine kinase isozymes)", "setting": "[13]", "result": "lack of increases"}]}
